Test results taken from PMC3079743.

System: TRF2DBD+L
Assay: differential centrifugation
Conditions: self-association; agarose gel binding detected at 10-fold lower concentration; EMSA buffer composition not in the material (AFM incubations: without Mg2+ and KCl, 30 min, room temperature); strand insertion assay: 50 mM HEPES, 100 mM …

“pRST5 2 kb telomeric fragment, histone-free (Tel DNA)” gave a binding signal (% sedimented at up to 1 uM) of 20.
